Test results as given in patent US7906310B2, “Proteases” (Novozymes A/S, priority 2003, dated 2011).

B1: Protease 10: known protease derived from Nocardiopsis sp. NRRL 18262, amino acids 1-188 of SEQ ID NO: 2 (protein)
chain: ADIIGGLAYTMGGRCSVGFAATNAAGQPGFVTAGHCGRVGTQVTIGNGRGVFEQSVFPGNDAAFVRGTSNFTLTNLVSRYNTGGYATVAGHNQAPIGSSVCRSGSTTGWHCGTIQARGQSVSYPEGTVTNMTRTTVCAEPGDSGGSYISGTQAQGVTSGGSGNCRTGGTTFYQEVTPMVNSWGVRLRT
B2: Protease 35: protease from Nocardiopsis prasina DSM 15649, amino acids 1-188 of SEQ ID NO: 8 (protein, listed as Nocardiopsis prasina)
chain: ATGPLPQSPTPEADAVSMQEALQRDLGLTPLEADELLAAQDTAFEVDEAAAEAAGDAYGGSVFDTETLELTVLVTDSAAVEAVEATGAGTELVSYGITGLDEIVEELNAADAVPGVVGWYPDVAGDTVVLEVLEGSGADVGGLLADAGVDASAVEVTTTEQPELYADIIGGLAYTMGGRCSVGFAATN
B3: porcine trypsin: protease included for comparative purposes (protein, UniProt P00761 9-231, looked up)
Trypsin: IVGGYTCAANSIPYQVSLNSGSHFCGGSLINSQWVVSAAHCYKSRIQVRLGEHNIDVLEGNEQFINAAKIITHPNFNGNTLDNDIMLIKLSSPATLNSRVATVSLPRSCAAAGTECLISGWGNTKSSGSSYPSLLQCLKAPVLSDSSCKSSYPGQITGNMICVGFLEGGKDSCQGDSGGPVVCNGQLQGIVSWGYGCAQKNKPGVYTKVCNYVNWIQQTIAAN
B4: Metarhizium protease: known protease derived from Metarhizium anisopliae, amino acids 1-188 of SEQ ID NO: 4 (protein, listed as Metarhizium anisopliae)
chain: MELTKFLALLAVILPVAYGAPTQAASLHPQILEAMKRDLGLNAEQATVRVAREIHATDVIEQLRSSVAFAGAWIDADVLYIGITDQALADEVTAAGATPIVMTNSLSKLEKAKEDLDKIFIGRANTLETSSDTSSGIASYFVDVAANKLVIEALADSHGHAEQLAAQVGLTSEFEVRTVETMPTTMAT

Columns and labels:
[1] = pNA assay: protease activity with 1 mM Cu2+ relative to control without Cu2+; assay type: biochemical; conditions: enzyme 1 mg/l, Suc-AAPF-pNA, pH 7, 25° C.; for Enzyme Activity, +1 mM Cu^2+: 1 mM Cu2+; for Relative Activity: activity with 1 mM Cu2+ relative to control without Cu2+; for Enzyme Activity, Control (no Cu^2+): no Cu2+
Method: (§1) Protease activity is measured using the substrate Suc-AAPF-pNA, in assay buffer at pH 7.0 and 25° C. For more details, please refer to the pNA assay described in Example 4, which also describes in detail the determination according to i) and ii).
Feature ii) is determined as the enzyme activity in the presence of 1 mM Cu^2+, relative to the activity of the same enzyme under the same conditions, except for the presence of Cu^2+. For the protease of the invention, this relative activity is at least 0.66 (=66%). For the purposes of feature ii), enzyme (protease) activity is measured as described above.
(§2) pNA substrate: Suc-AAPF-pNA (Bachem L-1400) or Boc-VLGR-pNA (Bachem L-1205). Temperature: 25° C.
(§3) 20 ul (microliters) protease (diluted in 0.01% Triton X-100) was placed in a well of a micro titer plate. The assay was started by adding 200 ul pNA substrate (50 mg dissolved in 1.0 ml DMSO and further diluted 100× with assay buffer). The increase in OD405 was monitored as a measure of the protease activity.
First, the effect of various Cu^2+ concentrations was tested with an enzyme dosage of 1 mg/l. At least in the range of 0 to 1 mM Cu^2+ there seemed to be a linear relationship between inhibition and concentration of Cu^2+, the inhibition manifesting itself as a decrease in the enzyme activity with increasing concentrations of Cu^2+ (the enzyme activity being measured as average OD405 increase/time from the linear part of dose/response curves).

[2] = Stability assay: residual activity after incubation with 1 mM inhibitor, measured by pNA assay; assay type: physicochemical; parameters: key to Residual Enzyme Activity: fraction of activity at 0 h incubation (0.80 = 80%); conditions: 1 mM Cu2+, 25° C., pH 7, 0.1% K-sorbate, relative to 0 hours
Method: Feature i) is determined as residual (=rest, or remaining) enzyme activity after having incubated the enzyme for 164 hours, at pH 7 and 25° C., in assay buffer supplemented with 0.1% K-Sorbate (for preservation purposes), and in the presence of 1 mM Cu^2+. The residual activity is measured relative to the activity after 0 hours of incubation. For the protease of the invention, the residual activity is at least 0.80 (=80%).
as §1, §3
The protease was diluted to approx. 1 mg/ml (see below) in assay buffer with 0.1% (w/v) K-sorbate (potassium salt of sorbic acid) and 1 mM inhibitor. The mixture was incubated at 25° C.). At intervals, a sample was withdrawn from the incubation (after thorough mixing) and frozen. After dilution in assay buffer, residual activity was measured using the pNA assay. For the 1 mM inhibitor additions, the incubation was diluted in assay buffer with 5 mM EDTA in order to see a pure stability effect.
Protease concentrations were estimated from the theoretical molar extinction coefficients, E280 (1 M), which can be calculated from the amino acid composition using the formula: E280 (1 M)=5690*NTrp+1280*NTyr+120*NCys, where NTrp, NTyr, and NCys are the number of Trp, Tyr, and Cys amino acid residues in the protease (Gill, S. C., von Hippel, P. H., Analytical Biochemistry 182: 319-326 (1989)) and the molecular weight, Mw, of the protease calculated from the amino acid sequence. From an A280 measurement of a pure protease sample (more than 95% pure according to Example 2), the protease concentration was calculated as: Conc (mg/ml)=(A280*MW)/E280 (1 M)).
The stability of the various proteases in the presence of the various inhibitors in a concentration of 1 mM was tested as described above. The only inhibitor that had some effect on the stability of some of the proteases was Cu^2+. However, the effect of this inhibitor was not the same on all the proteases: See the results in Table 2 below showing that Protease 18 and the Brachysporiella proteases are indeed stable in the presence of 1 mM Cu^2+, while the other proteases are not.

[3] = pNA assay dose/response curves with and without various inhibitors; assay type: biochemical; conditions: proteases included for comparative purposes
Method: as §2, §3
Dose/response relationships (OD405/min versus (mg enzyme)/l) were determined using the pNA assay for a number of proteases, with and without the various inhibitors. The dose-response curves were linear over a satisfactory broad range of enzyme concentrations. Varying degrees of inhibition were observed: Some proteases included for comparative purposes, viz. porcine trypsin and the SAVINASE™ protease (a subtilisin protease derived from Bacillus clausii, commercially available from Novozymes A/S, Krogshoejvej 36, DK-2880 Bagsvaerd, Denmark) were not inhibited, while other proteases were. […] It was therefore concluded that the pNA assay was indeed suitable for inhibition measurements.
Cu^2+, however, inhibited all of the proteases tested (to a varying extent, as it appears from Table 1 below).

Molecule	Enzyme Activity, +1 mM Cu^2+ [1] [mOD405/min]	Relative Activity [1]	Enzyme Activity, Control (no Cu^2+) [1] [mOD405/min]	Residual Enzyme Activity ([2]; incubation time 0 hours)	Residual Enzyme Activity ([2]; incubation time 3.1 hours)	Residual Enzyme Activity ([2]; incubation time 18.6 hours)	Residual Enzyme Activity ([2]; incubation time 44.0 hours)	Residual Enzyme Activity ([2]; incubation time 116.0 hours)	Residual Enzyme Activity ([2]; incubation time 164.0 hours)	Residual Enzyme Activity ([2]; incubation time 188.6 hours)	Inhibition by the various inhibitors (dose/response, pNA assay) [3]
B1	80.3	0.657	122.2	1.000	0.952	0.868	0.874	0.837	0.752	0.723	
B2	75.0	0.687	109.2	1.000	0.960	0.918	0.852	0.807	0.745	0.733	
B3											not inhibited
B4	72.4	0.612	118.2	1.000	0.979	0.939	0.891	0.760	0.651	0.627	
